We go through 1 substance from article PMC6930178.

For the assay, the target named is HIV-1 clade C 96ZM651 gp140 Env trimer (HIV-1 clade C isolate 96ZM651). The assay is described as follows: native gel or EMSA. Background: Mobility shift assays separate free from complexed probe on a gel.

“HIV-1 clade C 96ZM651 gp140 Env trimer (domain or fragment)”: the stoichiometry N was 3.

As usually defined, the stoichiometry N is a count of units in the complex or per binding partner.
